Entries after “also recorded” stand apart in the source; their conditions may differ.

The text below walks through data of US8114412B2, “T. cruzi-derived neurotrophic agents and methods of use therefor” (priority 1999, dated 2012).

Assay [1] deals with N18 cells. As to the kind of experiment: Neurite outgrowth assay in N18 cells. In kind it is cell-based. To be noted: immobilized proteins coated at 500 μg/ml, 17 hours (FIG. 3A). How it is done:
FIG. 3A is a graph showing that neurite outgrowth in N18 cells is induced by immobilized laminin (Ln), immobilized TS and immobilized fragments of TS. Proteins were immobilized by incubating plates which contained wells filled with solutions of the proteins (protein concentration was 500 μg/ml) at 4° C. overnight. The protein solutions were removed and the plates were further incubated with 1% BSA at room temperature for one hour. N18 cells were cultured in the coated wells in serum-free RPMI-1640/0.2% BSA for 17 hours, and neurite outgrowth was measured by phase-contrast microscopy. […] Ln, laminin; TS, purified T. cruzi trans-sialidase; 7F, recombinant TS from clone 7F; 19Y, recombinant TS from clone 19Y; TS-F, recombinant fragment consisting of amino acid residues 33-666 of TS (SEQ ID NO:2); TS-CC-47, recombinant fragment consisting of amino acid residues 79-478 of TS (SEQ ID NO:2); TS-Cat-47, recombinant fragment consisting of amino acid residues 79-415 of TS (SEQ ID NO:2); BSA, bovine serum albumin.
96-well microtiter plates were coated overnight at 4° C. with the TS or peptides or fragments thereof, or with control proteins laminin (Ln) or bovine serum albumin (BSA) at 500 μg/ml. After removing the compounds, the plates were further incubated with 1% BSA for 1 hour at room temperature and immediately used as substratum for PC12 or N18 (Prasad, K. N., Biol Rev Camb Philos Soc, 66:431-451 (1991)) cells in serum-free RPMI/0.2% BSA. Neurite outgrowth was measured using a phase-contrast microscope 17 hours later.

The subject of assay [2] is PC12 cells. The assay can be described thus: Trophic factor withdrawal-induced apoptosis of PC12 cells (DAPI/TUNEL). Format: cell-based, rat. Conditions: serum-free RPMI-1640/0.2% BSA, 17 hours, DAPI or TUNEL. In a few lines: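 PC12 cells were washed and plated at 2×10^5/ml in serum-free RPMI/0.2% BSA on collagen, with or without test agents. Apoptosis was scored by DAPI nuclear staining (300-400 cells counted) or TUNEL. Protection was calculated as 100% − (apoptosis% with agent ÷ apoptosis% in RPMI alone)×100%; wortmannin or LY294002 was added after 24 h, with DAPI read 24 h later.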

The subject of assay [3] is human Schwann cells. The assay can be described thus: Serum withdrawal-induced apoptosis of immortalized human Schwann cells (DAPI). In kind it is cell-based.
Assay [4] relates to Akt kinase in PC12 cells. As to the kind of experiment: Immunodetection of activated Akt (Ser 473) in PC12 cells. To be noted: 100 ng/ml, 2, 5 or 10 minutes; phospho-Akt (Ser 473) antibody. Format: cell-based, rat. As to the method:
PC12 cells were deprived of serum for 24-48 hours, stimulated with TS, TS-F or LTR for 2, 5 or 10 minutes and immediately lysed with 2% SDS. In studies using the PI-3 kinase inhibitor, LY294002 (LY), cells were pre-treated with the inhibitor (1 μM) for 30 min prior to the addition of TS-F or TS. The proteins in the cell lysate were separated in SDS-10% polyacrylamide gels, transferred to nitrocellulose membrane (Bio-Rad) and the phosphorylated form of protein kinase Akt was detected with phospho-Akt (Ser 473) antibody (New England BioLabs, Beverly, Mass.), followed by alkaline phosphatase-conjugated secondary antibody (Promega, Madison, Wis.). Bands corresponding to phospho-Akt (60 kDa) were quantified using a scanning densitometer (Bio-Rad).

In assay [5] the test system is human bladder carcinoma T-24 cell line. The assay can be described thus: IL-6 secretion by T-24 carcinoma cells (ELISA). In kind it is cell-based. To be noted: 24 hours culture.

B1: TS-F: recombinant full catalytic domain of TS, amino acid residues 33-666, His-tagged, expressed in E. coli (protein, listed as Trypanosoma cruzi)
chain: ETQIAIKNSRVSSVSRVVDPTVIVKGNKLYVLVGSYYSSRSYWSSHGDARDWDILLAVGEVTKSTAGGKITASIKWGSPVSLKKFFPAEMEGMHTNQFLGGAGVAIVASNGNLVYPVQVTNKRKQVFSKIFYSEDDGKTWKFGKGRSDFGCSEPVALEWEGKLIINTRVDWKRRLVYESSDMEKPWVEAVGTVSRVWGPSPKSNQPGSQTSFTAVTIEGMRVMLFTHPLNFKGRCVRDRLNLWLTDNQRIYNVGQVSIGDENSAYSSVLYKDDKLYCLHEINTDEVYSLVFARLVGELRIIKSVLRSWKNWTATCPAFAPLLIQPLRRQRVVVVPLSPRLVLLAFCRQRLPKRMGGSYRCVNASTANAERVRNGLKFAGVGGGALWPVSQQGQNQRYRFANHAFTLVASVTIHEAPRAASPLLGASLDSSGGKKLLGLSYDEKHQWQPIYGSTPVTPTGSWETGKRYHLVLTMANKIGSVYIDGELLEGSGQTVVPDGRTPDISHFYVGGYKRSDMPTISHVTVNNVLLYNRRQLNTEEIRTLFLSQDLIGTEAHMDSSSDSSAHSTPSTPADSSAHSTPSTPVDSSAHSTPSTPADSSAHGTPSTPVDSSAHGTPSTPADSSAHGTPSTPVDS
modifications: His tag
notes: recombinant full catalytic domain of TS, amino acid residues 33-666, His-tagged, expressed in E. coli
As for B1, the “neurite outgrowth in N18 cells” value in assay [1] is on record as “induced neurite outgrowth to about the same extent as the intact enzyme”. In assay [2], the “protection of PC12 cells from apoptosis induced by trophic factor withdrawal” value is “survival being induced”. Further, in assay [3] (CD 500 ng/ml), the “fragmented nuclei in serum-starved Schwann cells transfected with empty vector (neo)” value is on record as “decreased the number of fragmented nuclei by about ten-fold” and the “survival of Schwann cells transfected with PTEN mutant pG129R” value is recorded as “did not detectably enhance”. Further, in assay [3] (CD 500 ng/ml (6 nM) in serum-free DMEM, 72 hours, listed as CD), the “protection of Schwann cells from apoptosis compared with 2% serum” value is “nearly as effective as 2% serum”. Further, the “survival of control Schwann cells transfected with GFP vector” value in assay [3] (CD 500 ng/ml, serum-free 48 hours) is recorded as “did increase survival”. Moreover, the “survival of Schwann cells over expressing kinase-inactive Akt (AktKI)” value in assay [3] (CD 500 ng/ml, serum-free 48 hours, listed as CD) is recorded as “did not increase survival; also recorded: did not promote survival”. Moreover, in assay [3] (CD 500 ng/ml, listed as CD), the “rescue from apoptosis of Schwann cells over expressing PTEN” value is “did not rescue cells from apoptotic death”. Also, in assay [3] (serum-free DMEM, 24-72 hours, DAPI, listed as CD), the “inhibition of serum withdrawal-induced apoptosis of human Schwann cells” value is listed as “protected Schwann cells against apoptosis; also recorded: protected human Schwann cells from apoptosis; also recorded: dose-dependent inhibition”. In assay [4], the “phosphorylation/activation of Akt kinase in PC12 cells” value is “effective in activating Akt”. Further, the “IL-6 secretion by T-24 cells” value in assay [5] is reported as “did not promote IL-6 release”.
